Data reported in US20220380459A1 (DRAGONFLY THERAPEUTICS, published 2022).
Where two headings read alike, the source gives them in different places.

Experiments:
Test in all cases: SPR, Fab captured, 37C
[1] = biological target: T1, C domain of human CD33 (human, UniProt P20138 140-259, limits assumed)
T1 construct: recombinant C domain
Experimental: (§1) Kinetics and affinity of a series of Fab fragments of anti-CD33 antibodies with different CD33 variants (human CD33 ECD, cyno CD33 ECD, V-domain of human CD33, C-domain or human CD33 and selected CD33 SNPs) were assessed by surface plasmon resonance using Biacore 8K instrument (GE Healthcare). Anti-Fab antibody was immobilized on a CMS chip using standard amine coupling chemistry. CD33 FABs were captured on the anti-Fab chip at a density of ˜100 RU. Solutions containing different concentrations of soluble monomeric CD33 or its domains were injected over the captured FABs and control surfaces at 30 μl/min at 37° C. Surfaces were regenerated between cycles by quick injection of 10 mM glycine, pH 1.8. To obtain kinetic rate constants double-referenced data were fit to a 1:1 interaction model using Biacore 8K Evaluation software (GE Healthcare). The equilibrium binding constant KD was determined by the ratio of binding rate constants kd/kₐ.
The binding interface between the Fab fragment of each CD33 antibody to CD33 was mapped.

[2] = biological target: T2, V domain of human CD33 (human, UniProt P20138 18-139, limits assumed)
T2 construct: recombinant, fully glycosylated V domain; also called Human CD33 V domain
Experimental: as §1
(§2) The ability of anti-CD33 antibodies to recognize glycosylated CD33 was assayed. […] De-glycosylation status was confirmed by a shift on SDS-PAGE and MS.

[3] = biological target: T3, deglycosylated V domain of human CD33 (human, UniProt P20138 18-139, limits assumed, N-glycans removed by PNGase)
T3 construct: V domain deglycosylated by PNGase before testing; also called deglycosylated V CD33
Experimental: as §1, §2

[4] = biological target: T2, V domain of human CD33; remark: listed apart in the source
Experimental: as §1

[5] = biological target: T4, human CD33 extracellular domain (human, UniProt P20138 18-259)
T4 construct: soluble monomeric ECD; also called human CD33 ECD; hCD33
Experimental: as §1

[6] = biological target: T4, human CD33 extracellular domain; remark: listed apart in the source
[7] = biological target: T5, cyno CD33 extracellular domain (Cynomolgus/Rhesus (cyno))
T5 construct: soluble monomeric ECD; also called cyno CD33 ECD

[8] = biological target: T4, human CD33 extracellular domain; remark: listed apart in the source
[9] = biological target: T4, human CD33 extracellular domain; remark: listed apart in the source
Experimental: as §1
Affinity of 29 Fab fragments binding to human and cyno CD33 ECD were assayed by Biacore analysis.

Row | Binder | binding result [1] | Kd [2] [nM] | koff [2] [s⁻¹] | kon [2] [M⁻¹ s⁻¹] | Kd [3] [nM] | koff [3] [s⁻¹] | kon [3] [M⁻¹ s⁻¹] | Kd [4] [nM] | koff [4] [s⁻¹] | kon [4] [M⁻¹ s⁻¹] | Kd [5] [nM] | koff [5] [s⁻¹] | kon [5] [M⁻¹ s⁻¹] | Kd [6] [nM] | koff [6] [s⁻¹] | kon [6] [M⁻¹ s⁻¹] | Kd [7] [nM] | koff [7] [s⁻¹] | kon [7] [M⁻¹ s⁻¹] | Kd [8] [nM] | further results
1 | ADI-11830 Fab (Fab, V domains shown, Fab fragment; also called Ab9) VH: EVQLVESGGGLVQPGGSLRLSCAASGFTFSSYWMSWVRQAPGKGLEWVANINTDGSEVYYVDSVKGRFTISRDNAKNSLYLQMNSLRAEDTAVYYCARDVGPGIAYQGHFDYWGQGTLVTVSS VL: DIQMTQSPSSLSASVGDRVTITCRASQVIYSYLNWYQQKPGKAPKLLIYAASSLKSGVPSRFSGSGSGTDFTLTISSLQPEDFATYYCQQVYDTPLTFGGGTKVEIK | no binding | 4.5 | 0.0299 | 6.67e+06 | 3.95 | 0.0269 | 6.8e+06 | 4.5 | 0.0299 | 6.67e+06 | 2.75 | 0.00547 | 1.99e+06 | 2.75 | 0.00547 | 1.99e+06 | 27.8 | 0.0364 | 1.34e+06 | 2.75 | koff [8]: 0.00547 s⁻¹; kon [8]: 1.99e+06 M⁻¹ s⁻¹
2 | ADI-10163 Fab (Fab, V domains shown, Fab fragment; also called Ab17) VH: QVQLQESGPGLVKPSQTLSLTCTVSGGSISSGGYYWSWIRQHPGKGLEWIGSIYYSGSTYYNPSLKSRVTISVDTSKNQFSLKLSSVTAADTAVYYCARDRLDYSYNYGMDVWGQGTTVTVSS VL: DIQMTQSPSSLSASVGDRVTITCRASQSISSYLNWYQQKPGKAPKLLIYGASSLQSGVPSRFSGSGSGTDFTLTISSLQPEDFATYYCQQVYSAPFTFGGGTKVEIK | no binding | – | – | – | 152 | – | – | – | – | – | 53.5 | – | – | 53.5 | – | – | – | – | – | 53.5 | Kd [9]: 53.5 nM; binding result [7]: no binding (tested: 100 nM)
3 | ADI-10159 Fab (Fab, V domains shown, Fab fragment; also called Ab1; G59) VH: EVQLVESGGGLVQPGGSLRLSCAASGFTFSSYGMSWVRQAPGKGLEWVANIKQDGSEKYYVDSVKGRFTISRDNAKNSLYLQMNSLRAEDTAVYYCAREGGPYYDSSGYFVYYGMDVWGQGTTVTVSS VL: DIQMTQSPSTLSASVGDRVTITCRASQSISSWLAWYQQKPGKAPKLLIYDASSLESGVPSRFSGSGSGTEFTLTISSLQPDDFATYYCQQYESFPTFGGGTKVEIK | no binding | 5.56 | 0.005 | 905000 | 12.3 | 0.012 | 978000 | 5.56 | 0.005 | 905000 | 4.53 | 0.00195 | 429000 | 4.53 | 0.00195 | 429000 | 74.9 | 0.0436 | 528000 | 4.53 | koff [8]: 0.00195 s⁻¹; kon [8]: 429000 M⁻¹ s⁻¹
4 | ADI-11835 Fab (Fab, V domains shown, Fab fragment; also called Ab10; I35) VH: QLQLQESGPGLVKPSETLSLTCTVSGGSISSTDYYWGWIRQPPGKGLEWIGSIGYSGTYYNPSLKSRVTISVDTSKNQFSLKLSSVTAADTAVYYCARETAHDVHGMDVWGQGTTVTVSS VL: EIVLTQSPATLSLSPGERATLSCRASHSVYSYLAWYQQKPGQAPRLLIYDASNRATGIPARFSGSGSGTDFTLTISSLEPEDFAVYYCQQYDNLPTFGGGTKVEIK | no binding | 1.14 | 0.00868 | 7.6e+06 | 0.98 | 0.00779 | 7.94e+06 | 1.14 | 0.00868 | 7.6e+06 | 0.53 | 0.00143 | 2.6e+06 | 0.53 | 0.00143 | 2.6e+06 | 6.86 | 0.0189 | 2.76e+06 | 0.53 | koff [8]: 0.00143 s⁻¹; kon [8]: 2.6e+06 M⁻¹ s⁻¹
5 | ADI-11807 Fab (Fab, V domains shown, Fab fragment; also called Ab5; I07) VH: EVQLVESGGGLVQPGGSLRLSCAASGFTFGSYWMSWVRQAPGKGLEWVATIKQDGSEKSYVDSVKGRFTISRDNAKNSLYLQMNSLRAEDTAVYYCARPLNAGELDVWGQGTMVTVSS VL: DIQMTQSPSTLSASVGDRVTITCRASQSISSWLAWYQQKPGKAPKLLIYEASSLESGVPSRFSGSGSGTEFTLTISSLQPDDFATYYCQQSQSYPPITFGGGTKVEIK | no binding | 0.28 | 0.000847 | 3.07e+06 | 0.19 | 0.000745 | 3.9e+06 | 0.28 | 0.000847 | 3.07e+06 | 0.29 | 0.000332 | 1.14e+06 | 0.29 | 0.000332 | 1.14e+06 | 0.15 | 0.000151 | 998000 | 0.29 | koff [8]: 0.000332 s⁻¹; kon [8]: 1.14e+06 M⁻¹ s⁻¹
6 | ADI-10177 Fab (Fab, V domains shown, Fab fragment; also called Ab2) VH: EVQLVESGGGLVQPGGSLRLSCAASGFTFSSYWMSWVRQAPGKGLEWVANIKQDGSEKYYVDSVKGRFTISRDNAKNSLYLQMNSLRAEDTAVYYCARPLNAGELDVWGQGTMVTVSS VL: DIQMTQSPSTLSASVGDRVTITCRASQSISSWLAWYQQKPGKAPKLLIYEASSLESGVPSRFSGSGSGTEFTLTISSLQPDDFATYYCQQLESYPLTFGGGTKVEIK | no binding | 54.8 | 0.0857 | 1.56e+06 | 38.2 | 0.0701 | 1.88e+06 | 54.8 | 0.0857 | 1.56e+06 | 11.4 | 0.00636 | 558000 | 11.4 | 0.00636 | 558000 | 21.4 | 0.00754 | 353000 | 11.4 | koff [8]: 0.00636 s⁻¹; kon [8]: 558000 M⁻¹ s⁻¹
7 | ADI-10173 Fab (Fab, V domains shown, Fab fragment; also called Ab22) VH: QVQLVQSGAEVKKPGASVKVSCKASGYTFTSYYMHWVRQAPGQGLEWMGIINPSGGSTTYAQKFQGRVTMTRDTSTSTVYMELSSLRSEDTAVYYCAREAADGFVGERYFDLWGRGTLVTVSS VL: not shown | no binding | – | – | – | 200 | – | – | – | – | – | 58.8 | – | – | 58.8 | – | – | – | – | – | 58.8 | Kd [9]: 58.8 nM; binding result [7]: no binding (tested: 100 nM)

Continued by falling Kd [3], values first:

Row | binding result [1] | Kd [2] [nM] | koff [2] [s⁻¹] | kon [2] [M⁻¹ s⁻¹] | Kd [3] [nM] | koff [3] [s⁻¹] | kon [3] [M⁻¹ s⁻¹] | Kd [4] [nM] | koff [4] [s⁻¹] | kon [4] [M⁻¹ s⁻¹] | Kd [5] [nM] | koff [5] [s⁻¹] | kon [5] [M⁻¹ s⁻¹] | Kd [6] [nM] | koff [6] [s⁻¹] | kon [6] [M⁻¹ s⁻¹] | Kd [7] [nM] | koff [7] [s⁻¹] | kon [7] [M⁻¹ s⁻¹] | Kd [8] [nM] | Binder | further results
8 | no binding | 0.33 | 0.00143 | 4.52e+06 | 0.28 | 0.00136 | 4.85e+06 | 0.33 | 0.00143 | 4.52e+06 | 0.78 | 0.00124 | 1.6e+06 | 0.78 | 0.00124 | 1.6e+06 | 1.81 | 0.00472 | 2.62e+06 | 0.78 | ADI-11776 Fab (Fab, V domains shown, Fab fragment; also called Ab3; H76) VH: EVQLLESGGGLVQPGGSLRLSCAASGFTFSKYTMSWVRQAPGKGLEWVSAIVGSGESTYFADSVKGRFTISRDNSKNTLYLQMNSLRAEDTAVYYCAREGGPYYDSSGYFVYYGMDVWGQGTTVTVSS VL: DIQMTQSPSTLSASVGDRVTITCRASQSISSWLAWYQQKPGKAPKLLIYKASSLESGVPSRFSGSGSGTEFTLTISSLQPDDFATYYCQQYDDLPTFGGGTKVEIK | koff [8]: 0.00124 s⁻¹; kon [8]: 1.6e+06 M⁻¹ s⁻¹
9 | no binding | 0.3 | 0.000769 | 2.6e+06 | 0.21 | 0.000711 | 3.4e+06 | 0.3 | 0.000769 | 2.6e+06 | 0.0012 | 1.23e-06 | 1.02e+06 | 0.0012 | 1.23e-06 | 1.02e+06 | 0.118 | 0.000126 | 1.06e+06 | 0.0012 | ADI-11809 Fab (Fab, V domains shown, Fab fragment; also called Ab6) VH: EVQLVESGGGLVQPGGSLRLSCAASGFTFPSYWMSWVRQAPGKGLEWVATIKRDGSEKGYVDSVKGRFTISRDNAKNSLYLQMNSLRAEDTAVYYCARPLNAGELDVWGQGTMVTVSS VL: DIQMTQSPSTLSASVGDRVTITCRASQSISSWLAWYQQKPGKAPKLLIYEASSLESGVPSRFSGSGSGTEFTLTISSLQPDDFATYYCQQSQSYPPITFGGGTKVEIK | koff [8]: 1.23e-06 s⁻¹; kon [8]: 1.02e+06 M⁻¹ s⁻¹
10 | no binding | 0.14 | 0.000916 | 6.75e+06 | 0.11 | 0.00103 | 9.15e+06 | 0.14 | 0.000916 | 6.75e+06 | 0.02 | 5.65e-05 | 2.84e+06 | 0.02 | 5.65e-05 | 2.84e+06 | 4.96 | 0.019 | 3.82e+06 | 0.02 | ADI-11819 Fab (Fab, V domains shown, Fab fragment; also called Ab8) VH: EVQLVESGGGLVKPGGSLRLSCAASGFTFSSYAMSWVRQAPGKGLEWVSSISSSSEGIYYADSVKGRFTISRDNAKNSLYLQMNSLRAEDTAVYYCAREGGPYYDSSGYFVYYGMDVWGQGTTVTVSS VL: DIQMTQSPSTLSASVGDRVTITCRASNSISSWLAWYQQKPGKAPKLLIYEASSTKSGVPSRFSGSGSGTEFTLTISSLQPDDFATYYCQQYDDLPTFGGGTKVEIK | koff [8]: 5.65e-05 s⁻¹; kon [8]: 2.84e+06 M⁻¹ s⁻¹
